# B1: zHDAC10 (Danio rerio) (protein)
# chain: ASGSALIFDEEMSRYKLLWTDPACEIEVPERLTVSYEALRTHGLAQRCKAVPVRQATEQEILLAHSEEYLEAVKQTPGMNVEELMAFSKKYNDVYFHQNIYHCAKLAAGATLQLVDSVMKREVRNGMALVRPPGHHSQRSAANGFCVFNNVAIAALYAKKNYNLNRILIVDWDVHHGQGIQYCFEEDPSVLYFSWHRYEHQSFWPNLPESDYSSVGKGKGSGFNINLPWNKVGMTNSDYLAAFFHVLLPVAYEFDPELVIVSAGFDSAIGDPEGEMCALPEIFAHLTHLLMPLAAGKMCVVLEGGYNLTSLGQSVCQTVHSLLGDPTPRISGLGTACDSALESIQNVRNVQSSYWSSFKHLAQSETNPKRPRLDATNGGPKESSEPASESNPKKTAQDIVWPEPLKRMPASVRTVVVPPPGVELTLPKNCQHSGDISESTAKEVQRIRDKHFHDLTDQNILRSLGNIISVLDRMMRSDEVCNGCVVVSDLSVSVQCALQHALTEPAERVLVVYVGDGELPVKTNDGKVFLVQICTKETEDKCVNRLSLCLREGESLTAGFMQALLGLILPVAYEFNPALVLGIVGETAAKTGLMTVWGHMTCLIQGLARGRTLTLLQGYDKDLLELTVSALSGASISPLGPLRALKPEDVEMMEKQRQRLQERWGLLRCTVSES
# notes: full-length, residues 2–675
# Tests used:
# Experiment in all cases: purified protein, by the assay type
# [1] = substrate: CC(=O)NCCCC[C@H](NC(C)=O)C(N)=O; parameters: discontinuous LC-MS deacetylation assay, dansylated product quantified, steady-state kinetics; conditions: 50.0 °C
# Description: To study steady-state kinetics with non-fluorogenic peptide substrates and acetylpolyamines, a discontinuous LC–MS was employed based on the protocol of assaying nonfluorogenic acetyllysine peptide substrates for HDAC6 (ref. [17]). Assays were performed in triplicate. Briefly, 5 μl of enzyme (0.050–20 μM) in HEPES buffer (20 mM HEPES (pH 7.5), 100 mM NaCl, 5 mM KCl, 1 mM MgCl2) was added to 35 μl of substrate solution to initiate the reaction. […] The deacetylation products were derivatized with dansyl chloride at 50 °C for 2 hrs. The deacetylation products were detected by LC–MS using a Waters SQD equipped with an Acquity UPLC (Waters, Milford, MA, USA) and quantified by using the standard curves generated from the mass signals of the corresponding deacetylated polyamines and peptides. Inhibition of HDAC10 activity was measured by using 0.49 μM zHDAC10 with 192 μM N^8-acetylspermidine. Data were analysed by logistic regression for IC50 determination and the inhibition constant Ki was calculated based on the Cheng-Prusoff equation, Ki=IC50 / (1+[S]/KM)[45]. Assays were performed in triplicate at room temperature.
# [2] = substrate: CC(=O)NCCCCNCCCNC(C)=O; parameters: steady-state kinetics of acetylpolyamine deacetylation, discontinuous LC-MS after dansyl chloride derivatization; conditions: 50.0 °C
# Description: (§1) To study steady-state kinetics with non-fluorogenic peptide substrates and acetylpolyamines, a discontinuous LC–MS was employed based on the protocol of assaying nonfluorogenic acetyllysine peptide substrates for HDAC6 (ref. [17]). Assays were performed in triplicate. Briefly, 5 μl of enzyme (0.050–20 μM) in HEPES buffer (20 mM HEPES (pH 7.5), 100 mM NaCl, 5 mM KCl, 1 mM MgCl2) was added to 35 μl of substrate solution to initiate the reaction. After incubation for 15–60 min at room temperature, the reaction was quenched by addition of 50 μl of 20 mM dansyl chloride dissolved in acetonitrile followed by 10 μl of NaHCO3 (1.6 M, pH 10.0). The deacetylation products were derivatized with dansyl chloride at 50 °C for 2 hrs. The deacetylation products were detected by LC–MS using a Waters SQD equipped with an Acquity UPLC (Waters, Milford, MA, USA) and quantified by using the standard curves generated from the mass signals of the corresponding deacetylated polyamines and peptides. Inhibition of HDAC10 activity was measured by using 0.49 μM zHDAC10 with 192 μM N^8-acetylspermidine. Data were analysed by logistic regression for IC50 determination and the inhibition constant Ki was calculated based on the Cheng-Prusoff equation, Ki=IC50 / (1+[S]/KM)[45]. Assays were performed in triplicate at room temperature. We next tested the PDAC activity of hHDAC10 and zHDAC10 against several polyamine substrates using the LC–MS assay (Fig. 2, Supplementary Fig. 3 and Supplementary Table 1). […] For hHDAC10 and zHDAC10, kcat/KM=2,900±200 and 4,600±300 M^−1 s^−1, respectively; in comparison, N^1-acetylspermidine was a poor substrate with kcat/KM=24±5 and 7±2 M^−1 s^−1, respectively. Substrate specificity trends observed for zHDAC10 and hHDAC10 matched those of the previously reported mammalian N^8-acetylspermidine deacetylase activity. […] As a negative control, we examined the N^8-acetylspermidine deacetylase activity of human and zebrafish HDAC6 (ref. [17]). HDAC6 preferentially catalyses the deacetylation of the peptide substrate RGK(ac)-AMC with a catalytic efficiency >100-fold greater than that for the deacetylation of N^8-acetylspermidine. Therefore, HDAC6 is clearly an acetyllysine deacetylase and HDAC10 is an N^8-acetylspermidine deacetylase. It is notable that the molecular function of HDAC10 coincides with the cellular function of the cytosolic PDAC indicated in Fig. 1a.
# [3] = substrate: CC(=O)NCCCCCCCCN; parameters: steady-state kinetics of acetylpolyamine deacetylation, discontinuous LC-MS after dansyl chloride derivatization; conditions: 50.0 °C
# Description: as §1
# [4] = substrate: CC(=O)NCCCCCN; parameters: steady-state kinetics of acetylpolyamine deacetylation, discontinuous LC-MS after dansyl chloride derivatization; conditions: 50.0 °C
# Description: as §1
# [5] = substrate: CCCCNC(C)=O; parameters: steady-state kinetics of acetylpolyamine deacetylation, discontinuous LC-MS after dansyl chloride derivatization; conditions: 50.0 °C
# Description: as §1
# [6] = substrate: CC(=O)NCCCCNCCCN; parameters: steady-state kinetics of acetylpolyamine deacetylation, discontinuous LC-MS after dansyl chloride derivatization; conditions: 50.0 °C
# Description: as §1
# [7] = substrate: CC(=O)NCCCCN; parameters: steady-state kinetics of acetylpolyamine deacetylation, discontinuous LC-MS after dansyl chloride derivatization; conditions: 50.0 °C
# Description: as §1
# [8] = substrate: CC(=O)NCCCC[C@H](NC(=O)[C@H](C)NC(=O)CNC(C)=O)C(=O)Nc1ccc2c(C)cc(=O)oc2c1; parameters: fluorogenic AMC-conjugated acetyllysine peptide deacetylation, steady-state kinetics
# From the text: To determine steady-state kinetic parameters for the hydrolysis of a variety of acetylpolyamine and acetyllysine substrates, we prepared full-length recombinant HDAC10 from human (H. sapiens, hHDAC10) and zebrafish (D. rerio, zHDAC10). The CDs of these orthologues are highly similar based on 63%/79% sequence identity/similarity; only full-length constructs yielded soluble proteins. We first assayed the lysine deacetylase activity of these constructs against two commercially available aminomethylcoumarin (AMC)-conjugated fluorogenic acetyllysine peptides, GAK(ac)-AMC and RGK(ac)-AMC (molecular structures of all substrates are shown in Supplementary Fig. 2). […] These measurements were consistent with earlier studies reporting that HDAC10 activity was not measurable using fluorogenic peptide substrates. We also tested activity with 11 non-fluorogenic acetyllysine substrates using a […] chromatography–mass spectrometry (LC–MS)-based discontinuous assay[17] to avoid potential steric clashes that might occur with the bulky AMC group. These substrates included K(ac)NL and GAK(ac)NLQ, which mimic the peptide segment containing K73 in the proposed HDAC10 substrate MutS homologue 2 (MSH2)[22]. Again, we observed no or very low catalytic activity (Fig. 2 and Supplementary Table 1). In comparison with its closest relative, the cytosolic isozyme HDAC6 (ref. [17]), HDAC10 was clearly not an efficient lysine deacetylase.
protein,measurement,setting,value
B1,Km,[1],80 ± 10 µM
same,kcat,[1],0.013 s⁻¹
same,kcat/Km,[1],160 M⁻¹ s⁻¹
same,Km,[2],180 ± 40 µM
same,kcat,[2],0.48 ± 0.08 s⁻¹
same,kcat/Km,[2],2700 ± 300 M⁻¹ s⁻¹
same,Km,[3],170 ± 40 µM
same,kcat,[3],0.21 ± 0.02 s⁻¹
same,kcat/Km,[3],1200 ± 200 M⁻¹ s⁻¹
same,Km,[4],90 ± 30 µM
same,kcat,[4],0.37 ± 0.04 s⁻¹
same,kcat/Km,[4],3900 ± 300 M⁻¹ s⁻¹
same,Km,[5],900 ± 200 µM
same,kcat,[5],0.06 ± 0.02 s⁻¹
same,kcat/Km,[5],60 ± 20 M⁻¹ s⁻¹
same,Km,[6],130 ± 20 µM
same,kcat,[6],0.58 ± 0.03 s⁻¹
same,kcat/Km,[6],4600 ± 300 M⁻¹ s⁻¹
same,Km,[7],160 ± 50 µM
same,kcat,[7],0.7 ± 0.1 s⁻¹
same,kcat/Km,[7],4200 ± 900 M⁻¹ s⁻¹
same,Km,[8],22 ± 4 µM
same,kcat,[8],0.00033 ± 2e-05 s⁻¹
same,kcat/Km,[8],15 ± 2 M⁻¹ s⁻¹

# From article PMC5454378, “Histone deacetylase 10 structure and molecular function as a polyamine deacetylase” (Nature Communications, 2017)
